Substrate in series [1]: C[C@@](O)(CCO)CC(=O)O
Briefly: PK/LDH-coupled NADH oxidation, progress curves. The format is biochemical, Staphylococcus aureus. To be noted: ATP 5.0 mM, MgCl2 1.0 mM + nucleotide, KCl 50 mM, Hepes pH 8.0, 25 C, apparent. The source says:
PK/LDH-coupled NADH oxidation, progress curves on MVK (mevalonate kinase)

Substrate in series [2]: CC(C)(COP(=O)(O)OP(=O)(O)OC[C@H]1O[C@@H](n2cnc3c(N)ncnc32)[C@H](O)[C@@H]1OP(=O)(O)O)[C@@H](O)C(=O)NCCC(=O)NCCS
Briefly: coupled NADH oxidation, progress curves. The format is biochemical, Saccharomyces cerevisiae. To be noted: acetate 2.0 mM, ATP 4.0 mM, MgCl2 1.0 mM + nucleotide, KCl 50 mM, Hepes pH 8.0, 25 C, apparent.
Excerpt: coupled NADH oxidation, progress curves on ACS (acetyl-CoA synthetase)

Substrate in the series “purified protein”: CC(=O)O
Briefly: purified protein. As to conditions: CoA 2.0 mM, ATP 4.0 mM, MgCl2 1.0 mM + nucleotide, KCl 50 mM, Hepes pH 8.0, 25 C, apparent.

B1: MVK (mevalonate kinase) (Staphylococcus aureus) (protein)
chain: MTRKGYGESTGKIILIGEHAVTFGEPAIAVPFNAGKIKVLIEALESGNYSSIKSDVYDGMLYDAPDHLKSLVNRFVELNNITEPLAVTIQTNLPPSRGLGSSAAVAVAFVRASYDFLGKSLTKEELIEKANWAEQIAHGKPSGIDTQTIVSGKPVWFQKGQAETLKTLSLDGYMVVIDTGVKGSTRQAVEDVHKLCEDPQYMSHVKHIGKLVLRASDVIEHHNFEALADIFNECHADLKALTVSHDKIEQLMKIGKENGAIAGKLTGAGRGGSMLLLAKDLPTAKNIVKAVEKAGAAHTWIENLGG
notes: N-terminal His9-GST tag removed with PreScission protease; expressed in E. coli BL21(DE3)
On to B1, for which, in series [1], the Michaelis constant (Km) (usually the substrate concentration at which the rate is half of its maximum) is 27 µM; the kcat (usually the number of substrate molecules converted per active site and unit of time at saturation) was determined as 19 s⁻¹.

B2: ACS (acetyl-CoA synthetase) (Saccharomyces cerevisiae S288C) (protein)
chain: MSPSAVQSSKLEEQSSEIDKLKAKMSQSAATAQQKKEHEYEHLTSVKIVPQRPISDRLQPAIATHYSPHLDGLQDYQRLHKESIEDPAKFFGSKATQFLNWSKPFDKVFIPDPKTGRPSFQNNAWFLNGQLNACYNCVDRHALKTPNKKAIIFEGDEPGQGYSITYKELLEEVCQVAQVLTYSMGVRKGDTVAVYMPMVPEAIITLLAISRIGAIHSVVFAGFSSNSLRDRINDGDSKVVITTDESNRGGKVIETKRIVDDALRETPGVRHVLVYRKTNNPSVAFHAPRDLDWATEKKKYKTYYPCTPVDSEDPLFLLYTSGSTGAPKGVQHSTAGYLLGALLTMRYTFDTHQEDVFFTAGDIGWITGHTYVVYGPLLYGCATLVFEGTPAYPNYSRYWDIIDEHKVTQFYVAPTALRLLKRAGDSYIENHSLKSLRCLGSVGEPIAAEVWEWYSEKIGKNEIPIVDTYWQTESGSHLVTPLAGGVTPMKPGSASFPFFGIDAVVLDPNTGEELNTSHAEGVLAVKAAWPSFARTIWKNHDRYLDTYLNPYPGYYFTGDGAAKDKDGYIWILGRVDDVVNVSGHRLSTAEIEAAIIEDPIVAECAVVGFNDDLTGQAVAAFVVLKNKSSWSTATDDELQDIKKHLVFTVRKDIGPFAAPKLIILVDDLPKTRSGKIMRRILRKILAGESDQLGDVSTLSNPGIVRHLIDSVKL
B2: in series [2], the Km was 240 µM and the kcat came out at 10 s⁻¹. Further, in “purified protein”, the Michaelis-Menten constant (Km) was 280 µM and the kcat was determined as 10 s⁻¹.

The values above are taken from paper PMC4143292, “An Enzymatic Platform for the Synthesis of Isoprenoid Precursors” (PLoS ONE, 2014).
